Experimental data reported in IntAct's records for PubMed 16083881.

B1: Serine/threonine-protein phosphatase 5 (Mus musculus), Q60676 (parent)
chain: MAMAEGERTECAETPRDEPPADGTLKRAEELKTQANDYFKAKDYENAIKFYSQAIELNPGNAIYYGNRSLAYLRTECYGYALGDATRAIELDKKYIKGYYRRAASNMALGKFRAALRDYETVVKVKPNDKDAKMKYQECSKIVKQKAFERAIAGDEHRRSVVDSLDIESMTIEDEYSGPKLEDGKVTITFMKDLMQWYKDQKKLHRKCAYQILVQVKEVLCKLSTLVETTLKETEKITVCGDTHGQFYDLLNIFELNGLPSETNPYIFNGDFVDRGSFSVEVILTLFGFKLLYPDHFHLLRGNHETDNMNQIYGFEGEVKAKYTAQMYELFSEVFEWLPLAQCINGKVLIMHGGLFSEDGVTLDDIRKIERNRQPPDSGPMCDLLWSDPQPQNGRSVSKRGVSCQFGPDVTKAFLEENQLDYIIRSHEVKAEGYEVAHGGRCVTVFSAPNYCDQMGNKASYIHLQGSDLRPQFHQFTAVPHPNVKPMAYANTLLQLGMM
partner: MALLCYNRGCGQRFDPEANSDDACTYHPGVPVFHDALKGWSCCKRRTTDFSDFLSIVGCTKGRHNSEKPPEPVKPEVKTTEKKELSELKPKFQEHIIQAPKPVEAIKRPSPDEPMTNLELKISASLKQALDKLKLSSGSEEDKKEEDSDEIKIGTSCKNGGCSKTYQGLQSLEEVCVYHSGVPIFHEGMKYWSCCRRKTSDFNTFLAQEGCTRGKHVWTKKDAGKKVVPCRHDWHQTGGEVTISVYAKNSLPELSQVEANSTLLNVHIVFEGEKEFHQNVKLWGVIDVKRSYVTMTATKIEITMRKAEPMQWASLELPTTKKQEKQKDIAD

Variants of: B1
Details: with chrd1_mouse Chordc1, Q9D1P4

Row | effect of a mutation on the interaction | Variant
1 | disrupting interaction | MAMAEGERTECAETPRDEPPADGTLKRAEELKTQANDYFKAKDYENAIKFYSQAIELNPGNAIYYGNRSLAYLRTECYGYALGDATRAIELDKKYIKGYYARAASNMALGKFRAALRDYETVVKVKPNDKDAKMKYQECSKIVKQKAFERAIAGDEHRRSVVDSLDIESMTIEDEYSGPKLEDGKVTITFMKDLMQWYKDQKKLHRKCAYQILVQVKEVLCKLSTLVETTLKETEKITVCGDTHGQFYDLLNIFELNGLPSETNPYIFNGDFVDRGSFSVEVILTLFGFKLLYPDHFHLLRGNHETDNMNQIYGFEGEVKAKYTAQMYELFSEVFEWLPLAQCINGKVLIMHGGLFSEDGVTLDDIRKIERNRQPPDSGPMCDLLWSDPQPQNGRSVSKRGVSCQFGPDVTKAFLEENQLDYIIRSHEVKAEGYEVAHGGRCVTVFSAPNYCDQMGNKASYIHLQGSDLRPQFHQFTAVPHPNVKPMAYANTLLQLGMM [R101A]

Variants of: B1
Details: with chrd1_mouse Chordc1, Q9D1P4
Remark: another data set of the same source

Row | effect of a mutation on the interaction | Variant
2 | disrupting interaction | MAMAEGERTECAETPRDEPPADGTLKRAEELATQANDYFKAKDYENAIKFYSQAIELNPGNAIYYGNRSLAYLRTECYGYALGDATRAIELDKKYIKGYYRRAASNMALGKFRAALRDYETVVKVKPNDKDAKMKYQECSKIVKQKAFERAIAGDEHRRSVVDSLDIESMTIEDEYSGPKLEDGKVTITFMKDLMQWYKDQKKLHRKCAYQILVQVKEVLCKLSTLVETTLKETEKITVCGDTHGQFYDLLNIFELNGLPSETNPYIFNGDFVDRGSFSVEVILTLFGFKLLYPDHFHLLRGNHETDNMNQIYGFEGEVKAKYTAQMYELFSEVFEWLPLAQCINGKVLIMHGGLFSEDGVTLDDIRKIERNRQPPDSGPMCDLLWSDPQPQNGRSVSKRGVSCQFGPDVTKAFLEENQLDYIIRSHEVKAEGYEVAHGGRCVTVFSAPNYCDQMGNKASYIHLQGSDLRPQFHQFTAVPHPNVKPMAYANTLLQLGMM [K32A]
